In experiment [1] the target is T1, recombinant human IL-17A (R&D Systems) (human, UniProt Q16552 24-155). Put plainly: cell-based or functional assay.
Experiment [2] deals with T1, recombinant human IL-17A (R&D Systems). Put plainly: SPR, Biacore T-100; antibody immobilized on CM5 chip, rhIL17A 2.5-40 nM as analyte, single cycle kinetics. As for the experimental part: The surface was regenerated with a 30 second exposure of 10 mM Glycine-HCL pH 1.5. Single cycle kinetic analysis was performed on each antibody with the reference cell subtracted.

For experiment [3] the target is unchanged. Put plainly: cell-based or functional assay. This is another data set of the same source.
Experiment [4] has the same target. Put plainly: cell-based or functional assay. This is another data set of the same source.

One may read the Kd as the free concentration of one partner at which half of the binding sites on the other are occupied at equilibrium, for simple one-to-one binding. A word on the koff: it is the first-order rate constant of dissociation. As a reminder, the kon is a measure of how fast the partners come together.

T1 sequence (Q16552 24-155 limits assumed): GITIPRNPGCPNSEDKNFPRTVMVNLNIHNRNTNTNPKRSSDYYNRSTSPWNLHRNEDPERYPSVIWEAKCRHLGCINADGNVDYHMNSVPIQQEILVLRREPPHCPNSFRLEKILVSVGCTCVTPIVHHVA

B1: ABM60 (antibody, V domains shown)
VH: EVHLKESGPDLVAPSQSLSITCTVSGFSLTTYGVHWVRQPPGKGLEWLVVIWSDGLTTYNSALKSRLSISKDNSKSQVFLKMNSLRTDDTAMYYCARDYTYEYAMDYWGQGTTVTVSS
VL: DILLTQSPLSLPVSLGDQASISCRSSQSLVHSNGNTYLHWYLQKPGQSPKLLIYKVSNRFSGVPDRFSGSESGTDFTLKISRVEAEDLGVYFCSQSTHVPFTFGSGTKLEIKR
As for B1, the “IC50 (read off the curve), IL-6 in 3T3 cells” value in experiment [1] was about 0.8 µg/mL. In addition, in experiment [2], the Kd was 0.24 nM, the koff was 5.65e-05 s⁻¹ and the kon is 278000 M⁻¹ s⁻¹.

B2: ABM67 (antibody, V domains shown)
VH: EVKLVESGGGLVKPGGSLKLSCAASGFTFSSYAMSWVRQTPEKRLEWVATISSGGSYTYYPDSVKGRFTISRDNAKNTLYLQMSSLRSEDTAMYYCARQNWDAFVYWGQGTLVTASA
VL: DIVLTQSPAILSVSPGERVSFSCRAGQSIGTSIHWYQRRTNGSPRLLIKSASESISGIPSRFSGSGSGTDFTLSINSVESEDIADYYCQQSNSWPLTFGAGTKLEIKR
Consider B2, for which, in experiment [2], the Kd came to 0.169 nM, the koff was 0.000121 s⁻¹ and the kon was 713000 M⁻¹ s⁻¹.

B3: ABM64 (antibody, V domains shown)
VH: QVHVKQSGPELVRPGVSVKISCKGSGYTFTDYAMHWVKQSHAKSLEWIGVISTYSGNTNYNQKFKGKATMTVDKSSSTAYMELARLTSEDSAIYYCARGNYGSDWGQGTLVTVSA
VL: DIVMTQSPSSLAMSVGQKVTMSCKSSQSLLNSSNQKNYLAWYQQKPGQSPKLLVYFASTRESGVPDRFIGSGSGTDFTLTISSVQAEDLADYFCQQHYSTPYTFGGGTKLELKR
With B3, in experiment [2], the Kd came to 0.248 nM, the koff worked out at 0.000311 s⁻¹ and the kon is 1.25e+06 M⁻¹ s⁻¹.

B4: Ixekizumab (antibody, V domains shown)
VH: QVQLVQSGAEVKKPGSSVKVSCKASGYSFTDYHIHWVRQAPGQGLEWMGVINPMYGTTDYNQRFKGRVTITADESTSTAYMELSSLRSEDTAVYYCARYDYFTGTGVYWGQGTLVTVSS
VL: DIVMTQTPLSLSVTPGQPASISCRSSRSLVHSRGNTYLHWYLQKPGQSPQLLIYKVSNRFIGVPDRFSGSGSGTDFTLKISRVEAEDVGVYYCSQSTHLPFTFGQGTKLEIKR
In the case of B4, the “IL-17A Bioassay Potency (IC50, nM)” value in experiment [3] was determined as 0.39 nM. For the same molecule, the “IC50 (read off the curve), CXCL1 in HT29 cells” value in experiment [4] was about 0.1 µg/mL. In addition, the “IC50 (read off the curve), IL-6 in 3T3 cells” value in experiment [1] was about 0.2 µg/mL. In experiment [2], the Kd was 0.0069 nM, the koff was 1.39e-05 s⁻¹ and the kon amounted to 2.01e+06 M⁻¹ s⁻¹.

B5: ABM59 (antibody, V domains shown)
VH: EVKLVESGGGLVKPGGSLKLSCAASGFAFSSYDMSWVRQTPEKRLEWVAYISSGGGNTYYPDTVKGRFTISRDNAKNTLYLQMSSLKSEDTAMYYCAREALTMISTRDYYAMDYWGQGTSVTVSS
VL: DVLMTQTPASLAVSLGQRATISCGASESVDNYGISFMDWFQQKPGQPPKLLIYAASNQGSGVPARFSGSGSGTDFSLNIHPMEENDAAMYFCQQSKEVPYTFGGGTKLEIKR
Regarding B5, in experiment [2], the Kd is 0.506 nM, the koff worked out at 0.00057 s⁻¹ and the association rate constant (kon) stood at 1.13e+06 M⁻¹ s⁻¹.

Values taken from US20240301048A1 (LANIER BIOTHERAPEUTICS, published 2024).
